Assay [1] has as its target T1, T3.30: Biotin-LC linker-GVYKS[PO3H2]PVVSGDTS[PO3H2]PRHL-NH2 (reading uncertain; also: printed as Biotin-LC linker-GVYKS[PO3H2]PVVSGDTS[PO3H2]PRHL-NH2).
T1 construct: Human Tau 393-408 with an added N-terminal Gly; two lots used: MI89P9-P12-2 (64% pure) and MI89P9-P12-3 (87% pure); also called Phospho-tau peptide; phosphopeptide T3.30
T1 peptide: {Biotin-LC linker}-GVYK[pS]PVVSGDT[pS]PRHL-NH2
In words: SPR (Biacore X), T3.30 on streptavidin chip, antibody injected, 1:1 Langmuir fit; peptide lot 64% pure. As for the experimental part: (§1) All SPR experiments were carried out on a Biacore X instrument (GE Healthcare). Sensor chip SA (Streptavidin derivatized carboxymethyl dextran) was purchased from GE Healthcare. Running buffer was PBS (Dulbecco's PBS, Sigma D8537). Non-covalently bound Streptavidin was firstly removed from the sensor surface by injecting 8 pulses (each ˜1 μL) of 16 mM NaOH (aq). Phospho-tau peptide was then solubilized in PBS to give a final peptide concentration of 1 μM and then injected (35 μL) over flow cell (fc) 2 of the sensor chip at 5 μl/min. After coupling, a final immobilization level of 130 RUs was obtained. To study the binding of the antibodies to the chip surface, several concentrations of antibodies were prepared by serial 2-fold dilutions with running buffer. The injections were performed over both fc 1 and 2 at a flow rate of 50 μL/min for 120 s. Flow cell 1 was not derivatized and responses of fc 1 were subtracted from fc 2 to correct for instrument noise and bulk refractive changes. After each injection, the surfaces were washed immediately with running buffer for 100s. To remove any remaining bound antibody from the chip, surface regeneration was performed by injecting 1 μL of 10 mM Glycine-HCl pH 1.7. Kinetic analyses were performed using algorithms for numerical integration and global analysis using BIAevaluation 3.0. The sensograms obtained for injections of antibody at different concentrations were overlaid and the baselines adjusted to zero. For curve fitting, all data were fit simultaneously to a 1:1 homogeneous (Langmuir) model.
On the technique in general: Surface plasmon resonance follows binding to a sensor surface in real time, without labels.

For assay [2], the target named is T1, T3.30: Biotin-LC …. In words: SPR (Biacore X), T3.30 on streptavidin chip, antibody injected, 1:1 Langmuir fit; peptide lot 87% pure. The protocol: as §1
Assay [3] concerns the target T2, pTau peptide T3.5: Tau393-408 [pS396/pS404] (human).
T2 construct: Synthetic peptide (PolyPeptide Laboratories), coated on ELISA plates at 10 µg/mL; also called Tau p-peptide; T3: Tau 393-408 [pS396, pS404]
T2 peptide: VYK[pS]PVVSGDT[pS]PRHL
Put plainly: hybridoma supernatant ELISA screen (conclusion of Example 1). The protocol:
(§2) Hybridomas ELISA screen was performed on pTau peptide (ACl-35, T3.5: Tau393-408[pS396/pS404; PolyPeptide Laboratories, Hillerød, Denmark), the corresponding non-phosphorylated Tau peptide (T3.6: Tau393-408, PolyPeptide Laboratories), phosphorylated full-length (441aa) Tau protein (pTau protein, Vandebroek et al., 2005) and full-length (441aa) Tau protein (Tau protein, SignalChem, Richmond, Canada). Finally Bovine Serum Albumin (BSA) was used as negative control.
(§3) Plates were coated with 10 μg/ml of corresponding Tau peptide and 1 μg/ml of corresponding Tau protein overnight at 4° C. After washing each well with PBS-0.05% Tween 20 and blocking with 1% BSA in PBS-0.05% Tween 20, undiluted hybridoma supernatant or medium negative control were added to the plates and incubated at 37° C. for 2 hours. After washing plates were incubated with an alkaline phosphatase (AP)-conjugated anti-mouse IgG total antibody (Jackson Laboratories, Baltimore, Pa., USA) for 2 hours at 37° C. After washing plates were incubated with pNPP (para-nitro-phenyl-phosphate), the phosphatase substrate for AP, and read at 405 nm using an ELISA plate reader. Results are expressed as O.D. (Optical Density).

The target of assay [4] is T3, non-phosphorylated Tau peptide T3.6: Tau393-408 (human).
T3 construct: Synthetic peptide (PolyPeptide Laboratories); also called non-phospho counterpart of the antigenic peptide; non-phospho-peptide
T3 peptide: VYKSPVVSGDTSPRHL
The assay is described as above. As for the experimental part:
as §2, §3

In assay [5] the target is T4, full-length (441 aa) Tau protein (SignalChem) (human, UniProt P10636 1-758).
T4 construct: Bought recombinant protein; also called Full-length Tau; non-phospho full-length Tau protein
Put plainly: ELISA, plate-coated protein; grade (+ Good binding). For orientation: In an ELISA, binding on a coated surface is turned into a signal by an enzyme label.

In assay [6] the target is T5, phosphorylated full-length (441 aa) Tau protein (human, UniProt P10636 1-758, phosphorylated; the sites are not stated (preparation cited as Vandebroek et al., 2005)).
T5 construct: Full-length 441 aa Tau; Coated at 1 µg/mL; also called pTau protein; Full-length pTau
In words: ELISA, plate-coated protein.

Assay [7] has as its target T4, full-length (441 aa) Tau protein …. In words: ELISA, plate-coated protein.

The values below come from patent US20140294731A1 (AC IMMUNE S A, published 2014).

Changes are numbered by the printed parent chain. Where no end group is shown, it is not given here. [ ]: non-standard residue; d: D form. The star is where a group is joined. Biotin = O=C1N[C@H]2[C@H](CS[C@H]2CCCCC(=O)*)N1; pS = N[C@@H](COP(=O)(O)O)C(=O)O; LC linker = not defined here

T4 sequence (P10636 other isoform, or with tags, fused parts or gaps limits assumed): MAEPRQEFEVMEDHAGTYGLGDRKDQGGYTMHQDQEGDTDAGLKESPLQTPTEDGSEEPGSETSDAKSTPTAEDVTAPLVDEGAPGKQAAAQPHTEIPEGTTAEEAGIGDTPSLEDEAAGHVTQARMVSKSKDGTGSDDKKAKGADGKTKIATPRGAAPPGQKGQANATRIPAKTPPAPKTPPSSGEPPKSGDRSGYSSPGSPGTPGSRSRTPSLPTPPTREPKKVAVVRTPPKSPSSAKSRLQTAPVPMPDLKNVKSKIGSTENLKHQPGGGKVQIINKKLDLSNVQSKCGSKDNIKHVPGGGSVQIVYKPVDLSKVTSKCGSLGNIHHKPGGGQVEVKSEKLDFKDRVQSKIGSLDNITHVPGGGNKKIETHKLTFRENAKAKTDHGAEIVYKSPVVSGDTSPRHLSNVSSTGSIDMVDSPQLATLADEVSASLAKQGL
T5 sequence (P10636 other isoform, or with tags, fused parts or gaps limits assumed): as above

B1: ACI-35-1D2-Ab1 (antibody, IgG2a, V domains shown)
VH: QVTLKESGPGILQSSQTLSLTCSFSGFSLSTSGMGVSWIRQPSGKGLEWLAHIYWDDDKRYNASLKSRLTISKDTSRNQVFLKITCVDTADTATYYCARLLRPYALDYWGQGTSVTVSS
VL: NILMTQSPSSLAVSAGEKVTMSCKSSQSVLYSSNQKNYLAWYQQKPGQSPKLLIYWASTRESGVPDRFTGSGSGTDFTLTISSVQAEDLAVYYCLQYLSSLTFGAGTKLELK
notes: Biotinylated (-BT) in the AlphaLISA; also called ACl-35-1D2-Ab1; hybridoma A6-1D2-12
By Kd is commonly meant the equilibrium constant for the complex coming apart. A low value points to higher affinity. Usually koff stands for the first-order rate constant of dissociation. A high value points to fast dissociation. For orientation: kon means the second-order rate constant of association. B1: in assay [1], the Kd is at most 6 nM, the koff worked out at 9.3e-06 s⁻¹ and the kon amounted to 1600 M⁻¹ s⁻¹. Moreover, in assay [2], the Kd was 82 nM, the koff is 0.0018 s⁻¹ and the kon was 22000 M⁻¹ s⁻¹.

B2: ACI-35-2A1-Ab1 (antibody, IgG2b, V domains shown)
VH: EVQLQQSGPELVKPGASVKISCKASGYTFTDYYMNWVKQSHGKSLEWIGDINPNNGGTSYNQKFKGKATLTVDKSSSTAYMELRSLTSEDSAVYYCVREGRFAYWGHGTLVTVSA
VL: DIVMTQAAPSVPVTPGESVSISCRSSKSLLHSNGNTYLYWFLQRPGQSPQLLIHRMSNLASGVPDRFSGSGSGTAFTLRISRVEAEDVGVYYCMQHLKSPYTFGGGTKLEIK
notes: Biotinylated (-BT) in the AlphaLISA and as detector in the Setup 1 ELISA; also called ACl-35-2A1-Ab1; hybridoma A4-2A1-18
On to B2, for which, in assay [2], the Kd was 38 nM, the koff was found to be 0.001 s⁻¹ and the kon came to 27000 M⁻¹ s⁻¹.

B3: ACI-35-2G5-Ab2 (antibody, IgG2b, V domains shown)
VH: B2 VH with Y27F, N61H, H107Q
VL: DIVMTQSQKFMSTSVGDRVSVTCKASQNVGTNVAWYQQKPGQSPKALIYSASYRYSGVPDRFTGSGSGTDFTLTISNVQSEDLAEYFCQQYNSYPYTFGGGTKLEIK
notes: also called ACl-35-2G5-Ab2; ACl-35-2G5-AB2
With B3, in assay [2], the Kd was determined as 10 nM, the koff was 0.00023 s⁻¹ and the kon turned out to be 24000 M⁻¹ s⁻¹.

B4: ACI-35-2G5-Ab3 (antibody, IgG2b, V domains shown)
VH: B2 VH with Y27F, N61H, H107Q
VL: B3 VL
notes: Biotinylated (-BT) in the AlphaLISA and as detector in the Setup 1 ELISA; also called ACl-35-2G5-Ab3; ACl-35-2G5-AB3
B4: in assay [2], binding was characterised by a dissociation constant (Kd) of 2 nM, the koff was 3.8e-05 s⁻¹ and the kon is 17000 M⁻¹ s⁻¹.

B5: ACI-35-4A6-Ab2 (antibody, V domains shown)
VH: B2 VH
VL: B2 VL with H54Y
notes: also called ACl-35-4A6-Ab2; hybridoma A4-4A6-48
As for B5, the binding result in assay [3] and in assay [4] was “binds” each time.

B6: ACI-35-4A6-Ab1 (antibody, IgG2b, V domains shown)
VH: QVQLQQPGAELLKPGASVKLSCKASGYTFTSYWMHWVKQRPGRGLEWIGRIDPNSDRTKYNEKFKRKATLTVDKSSSTAYMQLSSLTSEDSAVYYCARDDYAWFAYWGQGTLVTVSA
VL: DVLMTQTPLSLPVSLGDQASISCRSSQSIVHSNGNTYLEWYLQKPGQSPKLLIYKLSNRFSGVPDRFSGSGSGTDFTLKISRVEAEDLGVYYCFQGSHVPPTFGGGTKLEIK
notes: also called ACl-35-4A6-Ab1; hybridoma A4-4A6-18
In assay [1], B6 showed a Kd of 16 nM, a koff of 0.0031 s⁻¹ and a kon of 200000 M⁻¹ s⁻¹. Besides, in assay [2], binding was characterised by a dissociation constant (Kd) of 15 nM, the koff is 0.0017 s⁻¹ and the kon is 110000 M⁻¹ s⁻¹. Also, the binding result in assay [5] is given as “binds”.

B7: ACI-35-2G5-Ab1 (antibody, IgG2a, V domains shown)
VH: QVQLKQSGAELVRPGASVKLSCKASGYTFTDYYINWVKQRPGQGLEWIARIYPGRGNIYYNEKFKGKATLTAEKSSSTAYMQLSSLTSEDSAVYFCARFWDVTYWGQGTLVTVSA
VL: B6 VL with Y41F, L56V, P101Y
notes: also called ACl-35-2G5-Ab1; ACl-35-2G5-AB1
In assay [1], B7 gave a Kd of 10 nM, a koff of 0.0053 s⁻¹ and a kon of 480000 M⁻¹ s⁻¹. Moreover, in assay [2], the Kd is 70 nM, the koff was found to be 0.0022 s⁻¹ and the kon was 32000 M⁻¹ s⁻¹. Besides, in assay [6], the binding result is on record as “no binding (tested: up to 20 µg/mL antibody)”. Further, the binding result in assay [7] was “no binding (tested: up to 20 µg/mL antibody)”.
